Laboratory results: publication PMC2950913 (Nature structural & molecular biology, 2010)

Molecular target: T1, RAD51 recombinase (human, UniProt Q06609 1-339)
T1 sequence: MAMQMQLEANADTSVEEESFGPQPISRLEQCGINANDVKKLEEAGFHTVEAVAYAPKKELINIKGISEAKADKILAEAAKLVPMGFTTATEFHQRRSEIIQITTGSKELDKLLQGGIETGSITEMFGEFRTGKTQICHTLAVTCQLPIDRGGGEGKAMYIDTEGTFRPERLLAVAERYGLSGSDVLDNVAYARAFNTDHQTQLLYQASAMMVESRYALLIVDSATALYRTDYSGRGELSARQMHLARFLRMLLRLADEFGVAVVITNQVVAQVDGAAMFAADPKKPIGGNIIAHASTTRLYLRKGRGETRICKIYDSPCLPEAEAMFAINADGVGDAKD
Test: pull-down

- binding result: binds
B1: GST-tagged PALB2 1-184 fragment (domain or fragment)
chain: MDEPPGKPLSCEEKEKLKEKLAFLKREYSKTLARLQRAQRAEKIKHSIKKTVEEQDCLSQQDLSPQLKHSEPKNKICVYDKLHIKTHLDEETGEKTSITLDVGPESFNPGDGPGGLPIQRTDDTQEHFPHRVSDPSGEQKQKLPSRRKKQQKRTFISQERDCVFGTDSLRLSGKRLKEQEEISS
